In article PMC6739602, “Intestinal Gel-Forming Mucins Polymerize by Disulfide-Mediated Dimerization of D3 Domains” (Journal of Molecular Biology, 2019):

B1: D1D2D3, mucin 2 recombinant protein spanning residues 21 to 1259 (domain or fragment, human, UniProt Q02817 21-1259, looked up)
chain: SELQTEGRTRNHGHNVCSTWGNFHYKTFDGDVFRFPGLCDYNFASDCRGSYKEFAVHLKRGPGQAEAPAGVESILLTIKDDTIYLTRHLAVLNGAVVSTPHYSPGLLIEKSDAYTKVYSRAGLTLMWNREDALMLELDTKFRNHTCGLCGDYNGLQSYSEFLSDGVLFSPLEFGNMQKINQPDVVCEDPEEEVAPASCSEHRAECERLLTAEAFADCQDLVPLEPYLRACQQDRCRCPGGDTCVCSTVAEFSRQCSHAGGRPGNWRTATLCPKTCPGNLVYLESGSPCMDTCSHLEVSSLCEEHRMDGCFCPEGTVYDDIGDSGCVPVSQCHCRLHGHLYTPGQEITNDCEQCVCNAGRWVCKDLPCPGTCALEGGSHITTFDGKTYTFHGDCYYVLAKGDHNDSYALLGELAPCGSTDKQTCLKTVVLLADKKKNVVVFKSDGSVLLNELQVNLPHVTASFSVFRPSSYHIMVSMAIGVRLQVQLAPVMQLFVTLDQASQGQVQGLCGNFNGLEGDDFKTASGLVEATGAGFANTWKAQSSCHDKLDWLDDPCSLNIESANYAEHWCSLLKKTETPFGRCHSAVDPAEYYKRCKYDTCNCQNNEDCLCAALSSYARACTAKGVMLWGWREHVCNKDVGSCPNSQVFLYNLTTCQQTCRSLSEADSHCLEGFAPVDGCGCPDHTFLDEKGRCVPLAKCSCYHRGLYLEAGDVVVRQEERCVCRDGRLHCRQIRLIGQSCTAPKIHMDCSNLTALATSKPRALSCQTLAAGYYHTECVSGCVCPDGLMDDGRGGCVVEKECPCVHNNDLYSSGAKIKVDCNTCTCKRGRWVCTQAVCHGTCSIYGSGHYITFDGKYYDFDGHCSYVAVQDYCGQNSSLGSFSIITENVPCGTTGVTCSKAIKIFMGRTELKLEDKHRVVIQRDEGHHVAYTTREVGQYLVVESSTGIIVIWDKRTTVFIKLAPSYKGTVCGLCGNFDHRSNNDFTTRDHMVVSSELDFGNSWKEAPTCPDVSTNPEPCSLNPHRRSWAEKQCSILKSSVFSICHSKVDPKPFYEACVHDSCSCDTGGDCECFCSAVASYAQECTKEGACVFWRTPDLCPIFCDYYNPPHECEWHYEPCGNRSFETCRTINGIHSNISVSYLEGCYPRCPKDRPIYEEDLKKCVTADKCGCYVEDTHYPPGASVPTEETCKSCVCTNSSQVVCRPEEGKILNQTQDGAFCYWEICGPNGTVEKHFNICSIT
notes: mucin 2 (MUC2), human, Uniprot Q02817, residues 21 to 1259; Probably made with the same QSOX1 signal peptide as MUC2D3, which would leave Ala-Pro at the N-terminus; also called MUC2 D1D2D3; source: HEK293F, produced and purified essentially as for MUC2D3 (no kifunensine; preparative gel filtration in 10 mM Hepes pH 7.5, 20 mM NaCl); not shown: His6, C-terminal, kept
B2: D1D2D3CysD1, mucin 2 recombinant protein spanning residues 21 to 1397 (domain or fragment, human, UniProt Q02817 21-1397, looked up)
chain: SELQTEGRTRNHGHNVCSTWGNFHYKTFDGDVFRFPGLCDYNFASDCRGSYKEFAVHLKRGPGQAEAPAGVESILLTIKDDTIYLTRHLAVLNGAVVSTPHYSPGLLIEKSDAYTKVYSRAGLTLMWNREDALMLELDTKFRNHTCGLCGDYNGLQSYSEFLSDGVLFSPLEFGNMQKINQPDVVCEDPEEEVAPASCSEHRAECERLLTAEAFADCQDLVPLEPYLRACQQDRCRCPGGDTCVCSTVAEFSRQCSHAGGRPGNWRTATLCPKTCPGNLVYLESGSPCMDTCSHLEVSSLCEEHRMDGCFCPEGTVYDDIGDSGCVPVSQCHCRLHGHLYTPGQEITNDCEQCVCNAGRWVCKDLPCPGTCALEGGSHITTFDGKTYTFHGDCYYVLAKGDHNDSYALLGELAPCGSTDKQTCLKTVVLLADKKKNVVVFKSDGSVLLNELQVNLPHVTASFSVFRPSSYHIMVSMAIGVRLQVQLAPVMQLFVTLDQASQGQVQGLCGNFNGLEGDDFKTASGLVEATGAGFANTWKAQSSCHDKLDWLDDPCSLNIESANYAEHWCSLLKKTETPFGRCHSAVDPAEYYKRCKYDTCNCQNNEDCLCAALSSYARACTAKGVMLWGWREHVCNKDVGSCPNSQVFLYNLTTCQQTCRSLSEADSHCLEGFAPVDGCGCPDHTFLDEKGRCVPLAKCSCYHRGLYLEAGDVVVRQEERCVCRDGRLHCRQIRLIGQSCTAPKIHMDCSNLTALATSKPRALSCQTLAAGYYHTECVSGCVCPDGLMDDGRGGCVVEKECPCVHNNDLYSSGAKIKVDCNTCTCKRGRWVCTQAVCHGTCSIYGSGHYITFDGKYYDFDGHCSYVAVQDYCGQNSSLGSFSIITENVPCGTTGVTCSKAIKIFMGRTELKLEDKHRVVIQRDEGHHVAYTTREVGQYLVVESSTGIIVIWDKRTTVFIKLAPSYKGTVCGLCGNFDHRSNNDFTTRDHMVVSSELDFGNSWKEAPTCPDVSTNPEPCSLNPHRRSWAEKQCSILKSSVFSICHSKVDPKPFYEACVHDSCSCDTGGDCECFCSAVASYAQECTKEGACVFWRTPDLCPIFCDYYNPPHECEWHYEPCGNRSFETCRTINGIHSNISVSYLEGCYPRCPKDRPIYEEDLKKCVTADKCGCYVEDTHYPPGASVPTEETCKSCVCTNSSQVVCRPEEGKILNQTQDGAFCYWEICGPNGTVEKHFNICSITTRPSTLTTFTTITLPTTPTTFTTTTTTTTPTSSTVLSTTPKLCCLWSDWINEDHPSSGSDDGDRETFDGVCGAPEDIECRSVKDPHLSLEQLGQKVQCDVSVGFICKNEDQFGNGPFGLCYDYKIRVNCCWPMDKCIT
notes: mucin 2 (MUC2), human, Uniprot Q02817, residues 21 to 1397 (includes the CysD1 domain following a short threonine-rich segment); Probably made with the same QSOX1 signal peptide as MUC2D3, which would leave Ala-Pro at the N-terminus; also called the largest fragment; source: HEK293F, produced and purified essentially as for MUC2D3 (no kifunensine; preparative gel filtration in 10 mM Hepes pH 7.5, …)
B3: MUC2D3, mucin 2 recombinant protein spanning residues 858 to 1259 (domain or fragment)
chain: APGTCSIYGSGHYITFDGKYYDFDGHCSYVAVQDYCGQNSSLGSFSIITENVPCGTTGVTCSKAIKIFMGRTELKLEDKHRVVIQRDEGHHVAYTTREVGQYLVVESSTGIIVIWDKRTTVFIKLAPSYKGTVCGLCGNFDHRSNNDFTTRDHMVVSSELDFGNSWKEAPTCPDVSTNPEPCSLNPHRRSWAEKQCSILKSSVFSICHSKVDPKPFYEACVHDSCSCDTGGDCECFCSAVASYAQECTKEGACVFWRTPDLCPIFCDYYNPPHECEWHYEPCGNRSFETCRTINGIHSNISVSYLEGCYPRCPKDRPIYEEDLKKCVTADKCGCYVEDTHYPPGASVPTEETCKSCVCTNSSQVVCRPEEGKILNQTQDGAFCYWEICGPNGTVEKHFNICSIT
modifications: N-linked glycans (six potential N-linked glycosylation sites); for the crystals endoH-treated to leave only a monosaccharide at glycosylated asparagines; intersubunit disulfides C1088-C1088 and C1130-C1130
notes: cleavage is predicted to occur between the two adjacent alanines; mucin 2 (MUC2), human, Uniprot Q02817, residues 858 to 1259 (VWD3, C8-3, TIL-3 and E-3 domains); Expressed in pcDNA3.1 downstream of the QSOX1 signal peptide; kifunensine/EndoH-treated protein gave the crystals of the solved structure; Disulfide-linked homodimer; also called mucin 2 multimerization module; MUC2 region spanning the …

Assays:
[1] = target: the molecule itself; assay: SEC-MALS; Superose 6 10/300 column, 0.5 ml/min, 10 mM Tris (pH 7.4), 20 mM NaCl, 0.02% sodium azide
[2] = target: the molecule itself; assay: SEC-MALS; Superdex 200 Increase 10/300 column, 0.5 ml/min, 25 mM Hepes (pH 7.4), 250 mM NaCl, 0.02% sodium azide

Row | Protein | stoichiometry N [1] | stoichiometry N [2]
1 | B1 | 2 | 
2 | B2 | 2 | 
3 | B3 |  | 2
